Here are results for one substance from article PMC2391292.

This assay has as its target human CD81 tetraspanin membrane receptor, CD81-GlyGly-rho-1D4 (human) (UniProt P60033). Description: ELISA; plates coated with 100 ng rho-1D4 antibody; 100 ng purified CD81 captured by its C-terminal tag; HCV-E2 added at 0.4 to 20 nM for 2 h at room temperature in 25 mM Tris-HCl pH 7.5, 144 mM NaCl, 0.05% DM; detected with goat anti-E2 polyclonal antibody; nonspecific binding (no rho-1D4) subtracted; non-linear regression. A general note: ELISA stands for enzyme-linked immunosorbent assay.
Chain of UniProt P60033 (P60033 whole entry): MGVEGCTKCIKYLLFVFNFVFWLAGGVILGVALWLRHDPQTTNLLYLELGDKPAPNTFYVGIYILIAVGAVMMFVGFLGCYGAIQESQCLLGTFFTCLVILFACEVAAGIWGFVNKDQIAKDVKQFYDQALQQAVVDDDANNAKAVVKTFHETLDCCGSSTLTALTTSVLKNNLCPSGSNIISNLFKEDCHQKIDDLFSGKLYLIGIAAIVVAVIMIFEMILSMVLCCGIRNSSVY

Take “Recombinant HCV E2 envelope protein (from UniProt P27958 384-746) (ligand)”: the Kd (as a rule, the concentration at which binding is half-saturated) was 3.8 nM.
